Measured values from publication PMC11370617.

Columns and labels:
[1] = biological target: Mus musculus arginyltransferase 1 isoform 1 (MmATE1-1), affinity tag intact, apo (Mus musculus) (UniProt Q9Z2A5); experiment: SEC-MALS
[2] = biological target: Mus musculus arginyltransferase 1 isoform 1 (MmATE1-1), affinity tag cleaved, apo (Mus musculus) (UniProt Q9Z2A5); experiment: SEC-MALS

| Substance | percent of the total protein that is dimeric [1] [%] | percent of the total protein that is dimeric [2] [%] |
| --- | --- | --- |
| Mus musculus arginyltransferase 1 isoform 1 (MmATE1-1), affinity tag intact, apo (from UniProt Q9Z2A5 1-516) (enzyme) | < 20 | – |
| Mus musculus arginyltransferase 1 isoform 1 (MmATE1-1), affinity tag cleaved, apo (from UniProt Q9Z2A5 1-516) (enzyme) | – | < 20 |
